Experimental findings from publication PMC12446771, “Proximity-dependent proteomics and network analysis of adenylyl cyclase isoforms 5, 6, and 9 in cardiomyocytes” (The Journal of Biological Chemistry, 2025) are described below.

This data set deals with the molecule itself. Put plainly: immunogold EM spatial mapping (univariate Ripley's K-function); intact apical plasma membrane sheets of BHK cells expressing AC5-YFP or AC6-RFP, 4.5 nm gold on anti-YFP or anti-RFP, TEM at 100,000×.

B1: AC5-YFP (enzyme)
chain: not shown
notes: adenylyl cyclase type 5; printed as AC5-YFP in the results and YFP-AC5 in the methods; also called YFP-AC5; source: BHK cells, transfected, on intact apical plasma membrane sheets
The stoichiometry N is the number of molecules, sites or subunits per partner or assembly. B1: the “stoichiometry N” value came to 2.
